Experiment: soluble on expression in E. coli; label from the status in PepcDB or PDB records

Question: With “AHHHHHHGSKFPKNFMFGYSWSGFQFEMGLPGSEVESDWWVWVHDKENIASGLVSGDLPENGPAYWHLYKQDHDIAEKLGMDCIRGGIEWARIFPKPTFDVKVDVEKDEEGNIISVDVPESTIKELEKIANMEALEHYRKIYSDWKERGKTFILNLYHWPLPLWIHDPIAVRKLGPDRAPAGWLDEKTVVEFVKFAAFVAYHLDDLVDMWSTMNEPNVVYNQGYINLRSGFPPGYLSFEAAEKAKFNLIQAHIGAYDAIKEYSEKSVGVIYAFAWHDPLAEEYKDEVEEIRKKDYEFVTILHSKGKLDWIGVNYYSRLVYGAKDGHLVPLPGYGFMSERGGFAKSGRPASDFGWEMYPEGLENLLKYLNNAYELPMIITENGMADAADRYRPHYLVSHLKAVYNAMKEGADVRGYLHWSLTDNYEWAQGFRMRFGLVYVDFETKKRYLRPSALVFREIATQKEIPEELAHLADLKFVTRK” as the sequence, how does the “soluble on expression in E. coli” value read?
Answer: not soluble

Question: Which “soluble on expression in E. coli” value does the source give for “AHHHHHHGSKIAIPTNGGGREDTVAPLFARAPAFYIAEVDEKGNIISEKVIQNPAATAGRGAGPIAVQMLINEGVDTIVAPQVVPNALGAIQAAGIRVYYVTPGTPVEEAIKVATTGQGGQLPSLPQIPTPVTPAPAMYGPVYPPFGWGRGWGKGRGWGRGWGSILGYCPWTGMPSRRALRWYYGWW” here?
Answer: not soluble

Question: For “AHHHHHHGSKRVNAFNDLKRIGDDKVTAIGMGTWGIGGRETPDYSRDKESIEAIRYGLELGMNLIDTAEFYGAGHAEEIVGEAIKEFEREDIFIVSKVWPTHFGYEEAKKAARASAKRLGTYIDLYLLHWPVDDFKKIEETLHALEDLVDEGVIRYIGVSNFNLELLQRSQEVMRKYEIVANQVKYSVKDRWPETTGLLDYMKREGIALMAYTPLEKGTLARNECLAKIGEKYGKTAAQVALNYLIWEENVVAIPKASNKEHLKENFGAMGWRLSEEDREMARRCV”, which “soluble on expression in E. coli” value is on record?
Answer: soluble

Question: With “AHHHHHHGSLVITPRRLHLGIIDPTGSLGRRFGSLGVALEGGYEIRITPADSLKIEAEKEDKETIKETIEKLNFEYDTGFGFYIEVRKSIPRHIGLGSTTQLTLGIAMGILKLLHKDVPVEEVAKILGRGKNSGVGIYAFKYGGFVVDGGVKDSVPPLLVRKDFPEDWAFLLVIPQVKRGFDEKEEQKIMEKPFGSASIAKEISYRILLGLLPALAEKNIEEFGRYLSTIQTLVGSSFSDFQGGEFREDIRLIVEFLNEITYGAGQSSWGPTVYGLIKRAEYQRVASRVAEFLDEQGIKAKIELGIPRNRGAEVKGESLFLERLIKSVSQ” as the sequence, how does the “soluble on expression in E. coli” value read?
Answer: soluble

Question: For “AHHHHHHGSNYRYPPRYGPEWGSGGIYGLRFHNGTLYFTLAFEGEAHFITEDSHKIYEFELVGPRPTSGGDTYNAVEVVDEYIYFGGWVHAPAKYRGKGEGKATIDFSNKYSHVHEYDTENQEVRLVWKESIHHPSEWAGEVSDIIYNPYTDELLLAREDGHTNLGVYSLSRNGRIRLLNDKPSAKGCQMHDLAFFGIGKNYRKGLEEIHALDMITERWEVFPLGESLDGGKYIQPHLGGNGVSVNNRVFAFVRGGVFVGNPHNDEQFAFVRLFDFYTFYAPFRVNALPIGGGILVGFNAHHDAYYRPRTQEEMIYHRFTNTIPGPSVLVYFAPPMVKIVGVFGARITSIEKVDGKILVATNTTPNVGALDATPFDTGNKDIFVLPEKILQEKPPAVSFSVPLAFPSEGKRMGAGVFGGIPLDGYDNARLIIKASRDNRLKVYEYDLALPLRDADVEEFDIKKGRNVIDLRTFSGIVSFELESEDFSGVARIELW”, which “soluble on expression in E. coli” value is on record?
Answer: not soluble

Question: Which “soluble on expression in E. coli” value does the source give for “AHHHHHHGSRMRQEERKFVELVERIMERWGYDRTGGKIYGILLLSNKPLTISELSKITGLSRSSVSVALSKLTREYLVTYTKEKKTKYFYAVPAFLEKFLKQPKEILEREIKPLKEIVVKLAEKSNEEEKARFEAILSDLLTLECVLKKIIELEEKESECLKK” here?
Answer: not soluble

Question: For “AHHHHHHGSSVEVPLNPITRSEIHQLESILLFATLFRPEVIELIKDPAERLTWVDSLAVAAGAIAREKAGMTVSEIARELGRTEQTIRKHLKGESKAGQLVRETYELIKQGKLDELIKTIEMIEKGGLREVVAKEEYEKLLQEYEKLKQEYEAIKEKVEAAELESLEKAKEEIENLKKKLQKLEEEKKELEKELKEQKVKLIEYEAKAKRAEELENKVKELEQLAKESEELKKKLEEVQAEAEKAKELENRIKELEEEITKLKDGIKKAKEILESLL”, which “soluble on expression in E. coli” value is on record?
Answer: not soluble

Question: With “AHHHHHHGSVDMSKVKLRIENIVASVDLFAQLDLEKVLDLCPNSKYNPEEFPGIICHLDDPKVALLIFSSGKLVVTGAKSVQDIERAVAKLAQKLKSIGVKFKRAPQIDVQNMVFSGDIGREFNLDVVALTLPNCEYEPEQFPGVIYRVKEPKSVILLFSSGKIVCSGAKSEADAWEAVRKLLRELDKYGLLEEEEEEL” as the sequence, how does the “soluble on expression in E. coli” value read?
Answer: soluble

Question: For “AHHHHHHGSVDWELMKKIIESPGVSGYEHLGIRDLVVDILKDVADEVKIDKLGNVIAHFKGSAPKVMVAAHMDKIGLMVNHIDKDGYLRVVPIGGVLPETLIAQKIRFFTEKGERYGVVGVLPPHLRREAKDQGGKIDWDSIIVDVGASSREEAEEMGFRIGTIGEFAPNFTRLSEHRFATPYLDDRICLYAMIEAARQLGEHEADIYIVASVQEEIGLRGARVASFAIDPEVGIAMDVTFAKQPNDKGKIVPELGKGPVMDVGPNINPKLRQFADEVAKKYEIPLQVEPSPRPTGTDANVMQINREGVATAVLSIPIRYMHSQVELADARDVDNTIKLAKALLEELKPMDFTP”, which “soluble on expression in E. coli” value is on record?
Answer: soluble

Question: With “AHHHHHHGSVDYELLKKVVEAPGVSGYEFMGIRDVVIEEIKDYVDEVNVDKLGNVIAHKKGEGPKVMIAAHMDQIGLMVTHIEKNGFLRVAPIGGIDPRTLIAQRFKVWIDKGKFIYGVGGSVPPHIQKPEDRKKAPDWDQIFIDIGAESKEEAEELGVKIGTIVTWDGRLERLGKHRFVSIAFDDRIAVYTLIETARQLQDTKADIYFVATVQEEVGLRGARTSAFGINPDYGFAIDVTIAADVPGTPEHKQVTQLGKGTAIKIMDRSVICHPTIVRWMEELAKKYEIPYQWDILLGGGTDAGAIHLTRAGVPTGAVSIPARYIHSNAEVVDERDVDASVKLMVKVLEHIHELKI” as the sequence, how does the “soluble on expression in E. coli” value read?
Answer: soluble

Question: For “AHHHHHHGSYDELFKKIKEKAKFVDEKLLSLIPEKEPKILYEAARHYPLAGGKRVRPFVVLTATEAVGGEWEKAIYPAVAIELIHNYSLVHDDIMDMDETRRGRPTVHKVWGINMAILAGDLLFSKAFEAISRAEIPPEKKARVLETVVKASNELCEGQAMDLEFEKRDTVTIEEYMRMISGKTGALFDASAKVGGIVGTDNEEYINALSTWGRNVGIAFQIWDDVLDLIADEEKLGKPVGSDIRKGKKTLIVAHFFENADEKDKQKFLKVFGKYAGDVKGEGIIEEDIKAEVMEAIDLLKKYGSIDYAANIAREMVKKANEALKVLPESEARKDLELLARFIVEREY”, which “soluble on expression in E. coli” value is on record?
Answer: soluble

Question: With “AHHHHHHGSYKILEKKEIAMRNTWYKVYAPHVAKKVQPGQFVIVRAFPNGERIPLTPVMWDREEGWIVLIVFTRGKTTMRMAVELKEGDSLLNVAGPLGTPVPMEKFGKILAIGAYTGIVEVYPIAKAWQEIGNDVTTLHVTFEPMVILKEELEKAVTRHIVEPVPLNPNQDFLANMKNVSQRLKEKVRELLESEDWDLVFMVGPVGDQKQVFEVVKEYGVPMKVDLHPIMVDGTGMCGACRVTVGGEVKFACVDGPEFDAYQVDWDELIHRVGFYAKLEKLALEKYMEELKAKGVIMPRLIKERVPTPERSVGERVRDFGEVNLGYSWELALREAERCLQCPVEYAPCIKGCPVHINIPGFIKALRENRDNPSKAVREALRIIWRDNTLPAITGRVCPQEEQCEGACVVGKVGDPINIGKLERFVADYAREHGIDDELLLEEIKGIKRNGKKVAIIGAGPAGLTCAADLAKMGYEVTIYEALHQPGGVLTYGIPEFRLPKEILRKELKKLSLLGVEIKTDHIVGKTITIQELLQEYDAVFIGTGAGTPKLPNIPGINLNGIYSANEFLTRINLMKAYKFPEYDTPIVVGKKVVVIGAGNTAMDAARSALRLGAEVTIAYRRGREDMTARIEEVKHAEEEGVKFMFFVNPVEFIGDENGNVKAVKFEKMKPLEERDSRGKRKIVGTGEYITVEADTVIIAIGQTPNKVLWRATPELKVDEWGRIVVDENLMTSIPGVFAGGDAIRGEATVILAMGDGRKAAKAIHQYLSKKGN” as the sequence, how does the “soluble on expression in E. coli” value read?
Answer: soluble

Question: With “AIAEAAVDWYDFWNYYYLGKYQAANDVCTTLLEPNQWPRSVLLAVIRLRLALRDLEGIRALRNLVNDTWTSSVIHELIETLQKNVPPIDDGERLRSVVFGDGSALDAVDEAGRLLAALALQRAGLYLDALETLPLSRCENDAESRACRICLWLHLNRLDRAQLEQQALEHWFERQLADGDQRAVGTLVQLSRATLAVASNDAEDVAIEAALRSCRDLAERYGPSTKLLNLTYLCLVRLGRTEASESTLQQAMNLDAQDPDTMANTAASAAKTSMMMMAFPEAATATQRPIEYLRKYAPWHPWIRAQDDFERKLRGLAT” as the sequence, how does the “soluble on expression in E. coli” value read?
Answer: soluble

Question: Which “soluble on expression in E. coli” value does the source give for “AIAKPTNKAQDDDAVFALSTEVNHKLDLHQSSAEALRLAGVYTRQSCVLDLYHGYRSDDEDTEPDEEDGRLQTVREYHENGMLKLMRTFVRRLRRDATDPTAESSYYDRVVEEKHYDPSGICRVDMHFALGQPYLYRKHYYPNNRLKSEKVFFVEDEETMRARKVGHWRTYYENGNIQSEIIYNKDGVRCGFCKRYAIDGAIEWVKDYTREQEERLQAFNAKRGNLDLTVTDAARVLGLEGDWCSHVVNRTFRSKCAPLHPDWRRTAGDKAGETWEEEQRTEAFIRLSRAREVLLKFLETHPRECSCERGGA” here?
Answer: soluble

Question: Which “soluble on expression in E. coli” value does the source give for “AIALTTNASSKIFSKASTAELVGHTRKVHCLSWNPKGGLLGSGGVDCVARIWDVEKLQQKAELEGHTSSIEQLKWDPTANVFFVSASLDHKVLFWDLRARNSEPVASVETQGENINLAWSQDGVYCAVGDKDDNLSFIDVRKFDFFERFQFAEEVNEFKWSPSGPFFFMTLGKEVLVFRWPTMEQQLRLQVHADRCYCLEFDRSGRYFALGGADSIISLWETEYMLCTWTVDRLEYPIRTISFSHDGQFIAAGSEDSVIDISDILNGRQTYALGVKGATNVVAWHPSRHLLAYATEEEYSRDGVAIHLYGTISKDNI” here?
Answer: soluble

Question: For “AIAPSRQLEDPGAGTPSPVRLHALAGFQQRALCHALTFPSLQRLVYSMCSLCQEENEDMVPDALQQNPGAFRLAPALPARPHRGLSTFPGAEHCLRASPKTTLSGGFFVAVIERVEMPT”, which “soluble on expression in E. coli” value is on record?
Answer: soluble

Question: With “AIASIPFSNTHYRIPQGFGNLLEGLTREILREQPDNIPAFAAAYFESLLEKREKTNFDPAEWGSKVEDRFYNNHAFEEQEPPEKSDPKQEESQISGKEEETSVTILDSSEEDKEKEEVAAVKIQAAFRGHIAREEAKKMKTNSLQNEEKEENK” as the sequence, how does the “soluble on expression in E. coli” value read?
Answer: soluble

Question: Which “soluble on expression in E. coli” value does the source give for “AIASKKKGLSFDDKRTRMLEIFTESKTFFTLKELEKVAPKQKGIVLPSVKEVLQSLVDDDVVSSDKCGTQTVYWCLPSQAVQKKRCRIASLTEHLQAKYALRQQLFQRRDELRNSHQDTEERTHFIEQINELESKLKLIQEQLDIYKESDPEVLAEIRNVSHIAWEATNRWTDNIFSIRSWVTSKFGLPSSEFDKNFGLSEDFDYI” here?
Answer: soluble

Question: With “AIAVHRDPAEELWCELWQPGVDITRKMNAIFGLKEIGTERAVTLLCAALLDARERSVLVRHEIAYVLGQIQSAASIKTLTDRLIDTDENSIVRHECGEALGAVRAFAVRPILQKLCGDAVPEVRETCVLALERLRWLEEKSTNEERVRETSAKAFKLFETVDPAPAFVAPDDLEASWSNAELGELLLNENEPLFRRYRALFTLRDRNTDDTAGVIAAALRRDTSSALFRHEVAYVLGQMSRACTLPALESALADTHEHAMVRHEAAEAIGAIGNSSACDILRRFLRDANVIVRESCQVALDIAGISDDCQFMD” as the sequence, how does the “soluble on expression in E. coli” value read?
Answer: soluble
